# Values of other authors, collected in paper PMC12291208.
# Legend:
# Lys118 = Lys118 (UniProt position 200, YVYKPKNTHEQ); details: folded protein; Lys92 buried, Lys118 solvent exposed
# Lys92 = Lys92 (UniProt position 174, RGLAYKYADGK); details: folded protein; Lys92 buried, Lys118 solvent exposed
Substance,pKa (Lys118),pKa (Lys92)
Staphylococcal nuclease (SNase) N118K variant (Staphylococcus aureus (inferred from 'staphylococcal'); N118K),10.4,
Staphylococcal nuclease (SNase) I92K variant (Staphylococcus aureus (inferred from 'staphylococcal'); I92K),,5.2
